Laboratory results from the supplement of paper PMC7125110.
± gives the standard error. For some assays here: Variants at the floor of the assay were thinned out.

B1: glmS ribozyme (parent)
chain: AUAAAAGCGCCAGAACUACAGAAAUGUAGUUGACGAGGAGGAGGUUUAUCGAAUUUUCGGCGGAUGCCUCCAAA

Key:
Conditions in all cases: with glucosamine-6-phosphate
[1] = variants of: B1; test: kcat; higher = faster cleavage; RNA array
In short: (§1)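 E. coli RNA polymerase transcribed barcoded ribozyme variants in situ on sequenced MiSeq chips, which were tracked via a hybridised Cy3 probe at 37 °C. Tiles were imaged over ~14 h after glucosamine-6-phosphate (40 μM to 10 mM) in HEPES/KCl/Mg(OAc)2 buffer was flowed in. Normalised per-tile medians were fit to one- or two-exponential decays for kobs, and kcat and KM came from weighted Michaelis–Menten fits.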

[2] = variants of: B1; test: KM; higher = weaker cofactor use; RNA array
In short: as §1

[3] = variants of: B1; test: self-cleavage kobs at 2500 uM GlcN6P; higher = faster cleavage; RNA array
In short: as §1

[4] = variants of: B1; test: self-cleavage kobs at 10000 uM GlcN6P; higher = faster cleavage; RNA array
In short: as §1

[5] = variants of: B1; test: self-cleavage kobs at 40 uM GlcN6P; higher = faster cleavage; RNA array
In short: as §1

[6] = variants of: B1; test: self-cleavage kobs at 160 uM GlcN6P; higher = faster cleavage; RNA array
In short: as §1

[7] = variants of: B1; test: self-cleavage kobs at 640 uM GlcN6P; higher = faster cleavage; RNA array
In short: as §1

| Variant | kcat [1] | KM [2] | self-cleavage kobs at 2500 uM GlcN6P [3] | self-cleavage kobs at 10000 uM GlcN6P [4] | self-cleavage kobs at 40 uM GlcN6P [5] | self-cleavage kobs at 160 uM GlcN6P [6] | self-cleavage kobs at 640 uM GlcN6P [7] |
| --- | --- | --- | --- | --- | --- | --- | --- |
| A15C U57A | 7.96e-05 ± 6.3e-06 s⁻¹ | 2770 ± 750 µM | 3.94e-05 ± 1.2e-05 s⁻¹ | 6.22e-05 ± 8.8e-06 s⁻¹ | – | – | – |
| A36U U57A G66C | < 1e-05 s⁻¹ | – | – | – | – | – | – |
| U54C C70U | 0.00794 ± 0.0014 s⁻¹ | 507 ± 130 µM | – | 0.00879 ± 0.0016 s⁻¹ | 0.000628 ± 8e-05 s⁻¹ | 0.00162 ± 0.00035 s⁻¹ | 0.00435 ± 0.0008 s⁻¹ |
| A52G C70A | 6.21e-05 ± 4e-06 s⁻¹ | – | 6.59e-05 ± 6.1e-06 s⁻¹ | 5.24e-05 ± 7.9e-06 s⁻¹ | 2.42e-05 ± 1.2e-05 s⁻¹ | 4.3e-05 ± 1.3e-05 s⁻¹ | 5.8e-05 ± 6.8e-06 s⁻¹ |
| U30G A39U | 0.00794 ± 0.0035 s⁻¹ | – | 0.00224 ± 0.00096 s⁻¹ | 0.00645 ± 0.00095 s⁻¹ | 0.000127 ± 2.3e-05 s⁻¹ | 0.000455 ± 8.4e-05 s⁻¹ | 0.000857 ± 0.00016 s⁻¹ |
| A64G C67U | 0.00193 ± 0.0003 s⁻¹ | 1860 ± 470 µM | 0.00125 ± 0.00017 s⁻¹ | 0.00154 ± 0.00015 s⁻¹ | 2.93e-05 ± 7.3e-06 s⁻¹ | 0.000155 ± 2.3e-05 s⁻¹ | 0.000628 ± 8.6e-05 s⁻¹ |
| U31C G41U | 0.000175 ± 1.4e-05 s⁻¹ | 1350 ± 260 µM | 0.000117 ± 1.7e-05 s⁻¹ | 0.000153 ± 2e-05 s⁻¹ | – | – | 5.36e-05 ± 1e-05 s⁻¹ |
| A12G G32U | 0.00313 ± 0.00012 s⁻¹ | – | 0.00055 ± 5.4e-05 s⁻¹ | 0.00144 ± 0.00014 s⁻¹ | – | 4.1e-05 ± 8.1e-06 s⁻¹ | 0.000164 ± 1.8e-05 s⁻¹ |
| A64U U69C | 5.01e-05 ± 2.7e-06 s⁻¹ | 1050 ± 310 µM | – | 4.48e-05 ± 1.3e-05 s⁻¹ | – | – | – |
| A15C C58U | 3.18e-05 ± 2.2e-06 s⁻¹ | 214 ± 97 µM | 2.9e-05 ± 1.1e-05 s⁻¹ | – | – | – | – |
| A14U G51U | < 1e-05 s⁻¹ | – | – | < 1e-05 s⁻¹ | < 1e-05 s⁻¹ | – | < 1e-05 s⁻¹ |
| U46A C68G | 2.56e-05 ± 5.1e-06 s⁻¹ | – | 3.32e-05 ± 1.5e-05 s⁻¹ | – | < 1e-05 s⁻¹ | – | – |
| G66A C71G | 0.00165 ± 0.00056 s⁻¹ | 1470 ± 720 µM | 0.000935 ± 9.9e-05 s⁻¹ | 0.00264 ± 0.00044 s⁻¹ | 5.97e-05 ± 7.2e-06 s⁻¹ | 0.000141 ± 1.8e-05 s⁻¹ | 0.000486 ± 6.2e-05 s⁻¹ |
| G66C C70U | 0.00129 ± 0.00032 s⁻¹ | 1440 ± 670 µM | 0.00109 ± 0.00013 s⁻¹ | 0.0011 ± 0.00011 s⁻¹ | 4.77e-05 ± 9.1e-06 s⁻¹ | 0.000178 ± 3.5e-05 s⁻¹ | 0.000285 ± 4.7e-05 s⁻¹ |
| G13U U69A | 4.51e-05 ± 1.2e-05 s⁻¹ | – | 6.1e-05 ± 1.3e-05 s⁻¹ | 3.28e-05 ± 1.1e-05 s⁻¹ | – | – | – |
| U46A U47A | 0.00774 ± 0.0022 s⁻¹ | 2510 ± 920 µM | 0.00385 ± 0.00067 s⁻¹ | 0.00631 ± 0.0017 s⁻¹ | 0.000207 ± 4.9e-05 s⁻¹ | 0.000426 ± 6.1e-05 s⁻¹ | 0.00159 ± 0.00033 s⁻¹ |
| A12C G41A | 0.00163 ± 0.00065 s⁻¹ | – | 0.00105 ± 0.00012 s⁻¹ | 0.00136 ± 0.00017 s⁻¹ | 7.57e-05 ± 9.1e-06 s⁻¹ | 0.000107 ± 1.7e-05 s⁻¹ | 0.000353 ± 3.5e-05 s⁻¹ |
| G13C G66U | < 1e-05 s⁻¹ | 766 ± 350 µM | – | – | – | < 1e-05 s⁻¹ | – |
| G32C U55C | 0.000106 ± 1.3e-05 s⁻¹ | 7360 ± 1900 µM | 2.78e-05 ± 1.4e-05 s⁻¹ | 6.12e-05 ± 1.1e-05 s⁻¹ | – | < 1e-05 s⁻¹ | – |
| U54C U65G | 0.00585 ± 0.0014 s⁻¹ | 5410 ± 1800 µM | 0.00207 ± 0.00032 s⁻¹ | 0.00371 ± 0.00042 s⁻¹ | 5.43e-05 ± 8.6e-06 s⁻¹ | 0.000122 ± 2.6e-05 s⁻¹ | 0.000671 ± 0.00011 s⁻¹ |
| A15C G44A | 2.81e-05 ± 1.7e-07 s⁻¹ | 3920 ± 72 µM | – | 2.02e-05 ± 9.6e-06 s⁻¹ | < 1e-05 s⁻¹ | < 1e-05 s⁻¹ | – |
| A15G G29C U31C A39U | 0.000143 ± 2.1e-06 s⁻¹ | 4650 ± 160 µM | 5.02e-05 ± 1.3e-05 s⁻¹ | 9.79e-05 ± 1.4e-05 s⁻¹ | – | – | – |
| U30A | 0.0142 ± 0.0014 s⁻¹ | 2550 ± 310 µM | 0.00727 ± 0.00029 s⁻¹ | 0.0114 ± 0.00039 s⁻¹ | 0.000227 ± 5e-06 s⁻¹ | 0.000758 ± 6.8e-05 s⁻¹ | 0.00244 ± 0.00012 s⁻¹ |
| A48G C61U | 3e-05 ± 9.3e-06 s⁻¹ | – | – | – | < 1e-05 s⁻¹ | – | – |
| C10U G32U | 4.97e-05 ± 3.1e-06 s⁻¹ | – | 5.05e-05 ± 1.2e-05 s⁻¹ | 4.67e-05 ± 6.1e-06 s⁻¹ | – | < 1e-05 s⁻¹ | – |
| G13U G29A | 0.000411 ± 4.9e-05 s⁻¹ | 6480 ± 1300 µM | 0.000121 ± 2.2e-05 s⁻¹ | 0.000246 ± 4.2e-05 s⁻¹ | – | – | 3.19e-05 ± 1.3e-05 s⁻¹ |
| A14C C16G A53U | 2.08e-05 ± 7.9e-07 s⁻¹ | 1700 ± 260 µM | – | – | – | – | – |
| U55G U57C | 0.000252 ± 3.3e-05 s⁻¹ | 4830 ± 1100 µM | 7.83e-05 ± 1.6e-05 s⁻¹ | 0.000174 ± 2.6e-05 s⁻¹ | < 1e-05 s⁻¹ | – | 3.51e-05 ± 1e-05 s⁻¹ |
| C11U A36C | < 1e-05 s⁻¹ | – | – | < 1e-05 s⁻¹ | < 1e-05 s⁻¹ | < 1e-05 s⁻¹ | – |
| A6G U47G | 0.0001 ± 1.3e-05 s⁻¹ | 1400 ± 520 µM | 6.1e-05 ± 1.2e-05 s⁻¹ | 9.1e-05 ± 1.8e-05 s⁻¹ | < 1e-05 s⁻¹ | – | 3.81e-05 ± 1.5e-05 s⁻¹ |
